# Data reported in patent publication US9284369B2, “Inhibition of angiogenesis” (Genentech, Inc., priority 2007, dated 2016).
# B1: G-CSF: recombinant granulocyte-CSF: mouse or human (R&D Systems) or human Neupogen (Amgen) (protein, chains of the INN, looked up)
# chain: MTPLGPASSLPQSFLLKCLEQVRKIQGDGAALQEKLCATYKLCHPEELVLLGHSLGIPWAPLSSCPSQALQLAGCLSQLHSGLFLYQGLLQALEGISPELGPTLDTLQLDVADFATTIWQQMEELGMAPALQPTQGAMPAFASAFQRRAGGVLVASHLQSFLEVSYRVLRHLAQP
# Key:
# Bv8 expression [1] = assay: Regulation of Bv8 gene expression in cultured human blood and bone marrow cells (Taqman); type: cell-based
# Procedure: RNA was prepared using the RNeasy™ Mini Kit (Qiagen). 50 ng total RNA per reaction was used for the real time PCR (Taqman) analysis. For human Bv8, testis RNA (BD Biosciences) served as control. Reactions were run on 9600 Emulation mode of 7500 Real time PCR system (Applied Biosystems, Foster City, Calif.) and the absolute quantification with standard curve was used with Sequence Detection System (SDS) software. The expression level of each gene was further quantified relative to the housekeeping gene RPL19 in the same sample. The sequences of Taqman primers are as follows: Human Bv8 forward: ATG GCA CGG AAG CTA GGA (SEQ ID NO: 10), reverse: GCAGAGCTGAAGTCCTCTTGA (SEQ ID NO: 11), probe: TGCTGCTGGACCCTTCCTAAACCT (SEQ ID NO: 12); Human RPL19 forward: CGC AAG CGC CGT GAA (SEQ ID NO: 28), reverse: GGTCTCTTCCTCCTTGGATAAAGTC (SEQ ID NO: 29), probe: CCAGGCCAAGAAGGAGGAGATCATCA (SEQ ID NO: 30). Human specific VEGF forward: AAT GAC GAG GGC CTG GAG T (SEQ ID NO: 31), reverse: TTGATCCGCATAATCTGCATG (SEQ ID NO: 32), probe: TGTGCCCACTGAGGAGTCCAACATCA (SEQ ID NO: 33).
# Recombinant human MCP-1, MIP-1α, MIP-1β, MIP-2, bFGF, VEGF, GM-CSF, G-CSF, SDF-1α, M-CSF, Erythropoietin (EPO) and TNFα were purchased from R&D Systems (Minneapolis, Minn.). Recombinant human IL-8, IFNγ, Bv8 (Prokineticin-2), IL-4, IL-10, IL-13, TGF-β were from PeproTech Inc. (Rocky Hill, N.J.). SCF (Stem Cell factor) was from Invitrogen Biosource (Carlsbad, Calif.). In some cases, G-CSF from Amgen (Neupogen/Filgrastim) was used. All cytokines were used at 10 ng/ml. Freshly purified cells were washed and re-suspended in HBSS media containing 0.2% BSA (low endotoxin, Serologicals Corp. Norcross, Ga.). Two million cells were incubated in 24-well plates with various cytokines and chemokines for 4 hr at 37° C. in a 5% CO2 incubator. Cells were then transferred into eppendorf tubes, centrifuged and lysed with RNA lysis buffer (Qiagen, Valencia, Calif.). Bv8 expression was assessed by Taqman with RPL19 (Ribosomal Protein L19) as the internal control gene.
# [2] = test system: Bv8 and PKR2/EG-VEGFR2 expression; assay: White blood cells from G-CSF treated donors; type: in vivo, human
# Procedure: MaxiSorp® 96-well microwell plates (Nalge Nunc International, Rochester, N.Y.) were coated with 1.0 μg/ml 3F1 mouse monoclonal antibody (Genentech Inc.) in 50 mM carbonate buffer, pH 9.6, at 4° C. overnight. Plates were washed with PBS containing 0.05% polysorbate 20 and blocked with 0.5% bovine serum albumin, 15 p.p.m. (parts per million) Proclin 300 (Supelco, Bellefonte, Pa.) in PBS at room temperature for 1 h. After plates were washed, human Bv8 standards (0.020-2.5 ng/ml in 2-fold serial dilution, PeproTech, Rocky Hill, N.J.) and samples (minimum 1:10 dilution) in PBS containing 0.5% bovine serum albumin, 0.05% polysorbate 20, 15 p.p.m. Proclin 300 (Supelco, Bellefonte, Pa.) and 0.35N NaCl (sample buffer) were serially diluted and were added to each well. The plates were incubated for 2 hr at room temperature followed by a washing step. The bound Bv8 was detected by adding the secondary antibody, a biotinylated hamster anti-Bv8 antibody clone 3B8 (Genentech Inc.) followed by adding streptavidin-HRP (GE Healthcare, Buckinghamshire, United Kingdom) and 3,3′,5,5′-tetramethyl benzidine (Kirkegaard & Perry Laboratories, Gaithersburg, Md.) as the substrate. The reaction was stopped by adding 1 M phosphoric acid. Absorbance was read at 450 nm on a ThermoMax microplate reader (Molecular Devices, Menlo Park, Calif.). The titration curves of the standards were calculated using a four-parameter regression curve-fitting program (Genentech Inc). Human Bv8 concentration was calculated by extrapolating the optical density values of samples to the data range in the standard curve. The Bv8 ELISA was capable of measuring up to 10% lysis buffer and had the sensitivity to detect Bv8 as low as 0.20 ng/ml in tissue lysates. […] This ELISA could also detect mouse Bv8 but with less than 7% sensitivity.
# Peripheral white blood cells were obtained from normal donors after 4-5 days of G-CSF treatment by apheresis collections (Cellular Therapy and Cell Processing Facilities, Fred Hutchinson Cancer Research Center, Seattle, Wash.). […]
# Bv8 expression [3] = assay: Bv8 expression in human leukemia cell lines; type: cell-based
# Procedure: U937, HL-60, THP-1, Hel 92.1.7, KG-1, K562, Jurkat cells were obtained from the ATCC® (Manassas, Va.). Most cells were grown in 10% FBS-containing RPMI. KG-1 cells were grown in 20% FBS-containing Iscove's modified Dulbecco's medium. For THP-1 cells, 10% FBS-containing RPMI was used with Sodium Pyruvate, HEPES and β-mercaptoethanol. For regulation studies, 1 million cells with viability higher than 95% were used. Regulation studies were performed under both normoxia and hypoxia conditions for 4 hr in 1 ml HBSS media containing 0.2% BSA.
molecule,measurement,setting,value
B1,Bv8 expression in monocytes and lymphocytes,"Bv8 expression [1]; 10 ng/ml, 4 hr",did not show any change
same,induction of Bv8 expression in human neutrophils and whole bone marrow cells,"Bv8 expression [1]; 10 ng/ml, 4 hr",7 fold
same,range of induction of Bv8 expression,"Bv8 expression [1]; 10 ng/ml, 4 hr",6-12 fold
same,duration of Bv8 mRNA induction,Bv8 expression [1]; data not shown,up to 24 hr
same,increase in Bv8 protein level in G-CSF mobilized mononuclear cells,"[2]; ELISA, vs untreated donors",10 fold
same,increase in Bv8 expression in G-CSF mobilized mononuclear cells,"[2]; donors treated 4-5 days, vs untreated donors",About 4.5 fold
same,induction of PKR2/EG-VEGFR2 expression in mononuclear cells,[2]; vs un-treated control samples,~2 fold
same,Bv8 expression in HL-60,Bv8 expression [3],Neither G-CSF nor GM-CSF affected Bv8 expression
same,increase in Bv8 expression in several leukemia cell lines,"Bv8 expression [3]; 10 ng/ml, 4 hr",2-3 fold
